Assay results as given in PMC6811742, “No interactions between heparin and atacicept, an antagonist of B cell survival cytokines” (British Journal of Pharmacology, 2019).

B1: Flag‐ACRP‐hAPRIL (ligand)
chain: not shown
notes: linker after the Flag tag; human ACRP30 (adiponectin), residues 16-108; linker; human APRIL, residues 105-250, starting at alanine 105 just after the furin cleavage site; also called Flag‐APRIL; ps1088; source: HEK293 cells, purified on anti‐Flag agarose
B2: Atacicept (TACI (30–110)‐Fc) (Fc fusion, human, UniProt O14836 30-110, looked up)
chain: AMRSCPEEQYWDPLLGTCMSCKTICNHQSQRTCAAFCRSLSCRKEQGKFYDHLLRDCISCASICGQHPKQCAYFCENKLRS
notes: also called TACI‐Fc; dimeric atacicept; source: provided by Merck (Darmstadt, Germany); also in sera of human subjects after 150 mg subcutaneously

Tests used:
[1] = target: B2; experiment: ELISA; plates coated with atacicept at 1 μg/ml in PBS, blocked, incubated with the indicated concentrations of Flag‐APRIL; revealed with anti‐Flag reagents; details: both partners purified
Flag‐mBAFF = target: T1, Flag‐mBAFF (mouse, UniProt Q9WU72 127-309); experiment: AlphaScreen or HTRF; AlphaLISA of atacicept diluted in mouse plasma with a matched pair of anti‐TACI antibodies (biotinylated ATA2, ATA3 acceptor beads), with or without recombinant mouse BAFF, with or without acid dissociation; conversely AlphaLISA of mouse BAFF in Baff−/− serum with 0, 100 or 2000 ng/ml atacicept; details: both partners purified
T1 construct: linker after the Flag tag; mouse BAFF, residues 127-309; that it is Flag‐mBAFF (ps657) is surmised; Encoded with an HA signal before the Flag tag; also called recombinant mouse BAFF; mouse BAFF
T1 sequence (Q9WU72 other isoform, or with tags, fused parts or gaps): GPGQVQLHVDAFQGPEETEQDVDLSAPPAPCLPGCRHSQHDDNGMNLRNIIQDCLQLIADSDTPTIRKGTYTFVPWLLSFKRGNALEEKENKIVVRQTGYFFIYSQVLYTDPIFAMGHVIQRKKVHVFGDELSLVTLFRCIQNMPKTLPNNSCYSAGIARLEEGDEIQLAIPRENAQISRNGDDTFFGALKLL

binding result [1]	binding result (Flag‐mBAFF)	Binder
binds	–	B1
–	binds	B2
